Measurements from the domain aggregation screens of Martell et al. (2025).

Assay: soluble fraction after stress (log2 fold change); higher = more stays soluble; pooled small domains, quantitative proteomics
Details: stress: 50 degC
Method in brief: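 The stress applied to every library was 50°C. These custom libraries of small protein domains were pooled and measured at high throughput with quantitative proteomics as the read-out. Aggregation propensity is expressed as the base-two logarithm of the fold change in how much of each protein remains soluble. The higher the value, the more of that protein stays in solution.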

“HMQLKFTDLRKEILRMIWEGHGPQKAYDLLNKLQQTNPSAKPATVYRALDFLIGNGFIHKVASLNAFVG” and “HMQLKKDTILSYIEEKLIDSYNSNKGFTTQEISVALNMQRTNVSAILNNLVKENKLVKTKGKPVRYFLSG” are within 0.2 log units of each other in “soluble fraction (log2)” value: -0.668 for the first, -0.708 for the second.

Compared with “HMQLTPAQHAILAHALEHSDGKIVWFPDNIKGGARKKVLDGLLNRALITTDGTDWFVAAEGYDAMGR”, “HMQLTVAVLIKNISKGQVISQGFLGFEARPERQIRGAYTNISEVLGRKAKSNIAVGTILKARHLDT” is lower in “soluble fraction (log2)” value: -0.227 for the first, -2.94 for the second.

First: HMQNAMQKELIDAFQKAYPDLDITKIELVYGTYYEVEAMNSTTEFTYRYDQNSKTFILAEQDNADP
Second: HMQNELAEARSQLAERKNIDQAKLILMKKRNISEPEAYKLLRSHAMQTNRRVAEVAESIITAESLLG
The “soluble fraction (log2)” value of the first is lower: -0.202 for the first, 0.0394 for the second.

Going from “HMQNGNLVDVYLNWRGKYYAIKMFFPNSKMPRRSDVQDQIVKVYPDARVQSFQVSKYVPGQPFL” to “HMQNLSELAYVNLRDALMQGQMKPGEELPLRPISRSFGISATPMREALLRLVTESALEMDSRGRISVP”, the “soluble fraction (log2)” value rises from -1.62 to -0.341.

First: HMQNPYDTLGVSRDSTDAEIKKAYRKLAMEHHPDKGGDSQRFAEINNAYDNIKDMSSRQNFENDPSNFQ
Second: HMQNVFARKNLTSVSVDKLGEEEILLFKQSFESKNLTSSEALRDLSKKGMSEAELRKLKVRLTQL
The “soluble fraction (log2)” value of the first is higher: 0.288 for the first, -0.074 for the second.

First: HMQNWFADPKFEMFEDYGDAQSFYDTETKNIYVVMAEYGQKGSNTIQEITPDSEEYIPNYEKYKEYMENK
Second: HMQNYLEFIGNELKALTSIPSPSGYTKDVAAYLMKTLSDMGYEPQLSNKGNVFVTIGGEGNPLVLAAHVD
The “soluble fraction (log2)” value of the first is lower: -0.387 for the first, -0.0984 for the second.

Going from “HMQNYLEVLRLHELGMGQRKIAQQVHTSRDTIRKIIAIAENQGLNYSNLIGKTDNELSKVFG” to “HMQPAGEGAILRYLSSGAVKGIGPVMAREIVRRFGTDTFRVMEQEPEKLLKVKGITEQRLQTIMESYQD”, the “soluble fraction (log2)” value rises from -0.307 to -0.0857.

“HMQPDPAFVAWVDANPWYKENRTLRALVHDYAEEVKRQEPALIGTAFLDRVKQLVQSEHPELFD” and “HMQPETIEDATNLYLEAARATLQLIEQNNVIARDVKRLLEHLDNDMARIETLLAEMLSRRDHWLRHIH” are within 0.2 log units of each other in “soluble fraction (log2)” value: -0.0926 for the first, -0.12 for the second.

Compared with “HMQPIQPNQAKYLDGLSSKYKGKGNHSQAAQLTALRDALNAGDHAKAREIYDKLDYEPQAEAAH”, “HMQPNVTRERILAAAMTVFAQKGWQKTSLDEVAAAAGMTKGAIYWHFRNKNDLFFALLDARLQRD” is lower in “soluble fraction (log2)” value: 0.351 for the first, -1.97 for the second.

Compared with “HMQQAVTMQKPGRLLRNADGNGGAVRDLDVGMMLYPTGNRSELMWEVDDELGNRGWVNSTLFGLS”, “HMQQDGSSSLGENMLNQELQARGVVPSEIPQEVWERVIQEAGKKSKREIYADIGLGRSLAAGFAQRLAA” is higher in “soluble fraction (log2)” value: -0.109 for the first, 0.261 for the second.

“HMQQDVLKLKSGGNYKGEYINIESAYVLFKPEGGNATQRIKVNEIQMLKLADGTEVIFGGRVK” and “HMQQEPNFYIVDGNTNQIVDRYYAPDSNVAHQYLGQWRQQHDPQETGNYRYGRLSSETEERYRNLAA” are within 0.2 log units of each other in “soluble fraction (log2)” value: 0.0478 for the first, 0.236 for the second.

Compared with “HMQQFGANVRLIRKARQMSIKQLSELSGVSQTMISEVERGLKIPTIDVAGKIAAALGIDLTNLMG”, “HMQQIQILPDGKIKLPDLSGTNMREAIEILHKGGLRMKPYGSGNAYQQKPAAGETVASGTTVEVLSL” is higher in “soluble fraction (log2)” value: -0.465 for the first, 0.0457 for the second.

Compared with “HMQQLAEQIPTDRPYISIAEAVVLFGISRDTIYRQIRKGNIPAVNLGERLTRISRIHIEAMFPKV”, “HMQQNYREMHKVKKGETLFGIARRYEITVDQLIKANPDMNAVGYELKKGDYIFIPYPDGQKP” is higher in “soluble fraction (log2)” value: -0.563 for the first, -0.13 for the second.

Compared with “HMQRAEQLPAELAAVFRAETEAWGFFERQPPGYQRVAIHWVASAKQEATRLRRLAKLIEESAAGRR”, “HMQRDTIAISAIPTAIKTYLSSTYPTDTLVHAFVNKDQSIVVISKNIDFYATSFSTANAFIKRIQLPA” is higher in “soluble fraction (log2)” value: -1.7 for the first, -1.03 for the second.

First: HMQRFIHITVSDVHQATRLLEEEMQLTNYSVAENNAIKIFEFTYEPQEINHLFGKNGIEVSSLFIGS
Second: HMQRNLILKLDTDQPEIYKKLESIFVEINGLLVPFFIEKIIWSKQDSLNILFKNSSEALVEQLIGKNVFLP
The “soluble fraction (log2)” value of the first is lower: -0.134 for the first, 0.0989 for the second.

Going from “HMQRSVNYSELHEIKERVFDALYSSPMSMPDLLAWLKGDEEHTISVIRLMQDNGDIEMGEDGRLAVV” to “HMQSISLEEAKSAALDDAQLGIDEVEFLKTERNTDGDTSYYDIQFLVNGTIYKYQINTETGAILHVDYEA”, the “soluble fraction (log2)” value rises from -0.275 to -0.052.

Going from “HMQSITAGDKVRVKNYTVSGGKKRGKVYGGAGTFVVYYEKYDVISVTGDRVVIGIGKAVTAAVHIDDLEK” to “HMQSKSEINELPKSIHMAFSPKNFELFIDNLKINEIDFSNWKGELNTIQERVDGQRQIWIQDPQGYWIEIN”, the “soluble fraction (log2)” value rises from -1.15 to -0.018.

“HMQSLIVPVPKPEDDPVYKDGIKQDPVEVVSIWLGRDYLNMILNLKVSTGKGHTFGIVEDVS” and “HMQSNDTAEIEAVVKEIMAANERVVNDYRSGNTKVVSFFVGQVMKATKGKANPKVVNEVLAKLLK” are within 0.2 log units of each other in “soluble fraction (log2)” value: 0.0321 for the first, 0.0929 for the second.

“HMQSVPELDQQFKIAIENNDFIKLAQLKEQGYHPSKEVMQSLSNTTPNNTIIAVQKIFGLKA” and “HMQSVSANSVQKQLADIIDGEDKTHPLSDRELTEKLVAQGVQISRRTVAKYREAMGIPGASGRKQ” are within 0.2 log units of each other in “soluble fraction (log2)” value: 0.231 for the first, 0.072 for the second.

First: HMQTAAANPSPESILQAREAAGLSQSEAGALIYSGLRSWQHWEWGTRRMHPGLFELFLKKTGQI
Second: HMQTKMVYSDLVNSIKSEQVSSMLVSGNTVTVTLTNGDKAKVKIPSLDTLQADVGKEMNDQMDKGTLKQE
The “soluble fraction (log2)” value of the first is lower: -1.7 for the first, 0.181 for the second.

Compared with “HMQTKNYVYFNNTENWSTVNVYVWSSKDSTYMSWPGKAMESIGNNTYRFELPNGAEYAIFNNGSAQTVD”, “HMQTKSDMVYHRVREDIVNGVFAPGERLLISAVAKQYGVSEIPVREAFRVLSQEGFLKTRPNSGFVVS” is higher in “soluble fraction (log2)” value: -0.137 for the first, 0.0933 for the second.

Going from “HMQTMTAGERREAILRELEQAQGPVSASALAKRFHVSRQAVVGDVAMLRALNSPIAATPRGYVLTR” to “HMQTMTDDQVMQYVISQQEKGATQQDIVSKLLQKGVTVDQMRRIRKKYEAQQSQPGALDLTGSS”, the “soluble fraction (log2)” value rises from -0.0845 to 0.209.

First: HMQTNEAIINQAVQAAEAQNITTRSQAVDALKANGMTEAQARQLAVQRGISYDQLINELFPME
Second: HMQTPVTVGDTMPNLIGTPKRLLLELLNRTDITVKLTGDGYVTAQSPAAGTPIAKGMIIELSL
The “soluble fraction (log2)” value of the first is higher: -0.0275 for the first, -0.296 for the second.

Going from “HMQTQVEVLVKYVLEDGTVYKEDKVSADIGAILDSGDLPMLSNDMKFIDDFLFYEVKESDNVIERKVAKLV” to “HMQTQYIVDTKTTLLVRTGPGKSNSQFGRLKNGETINVYAIKNGWAEISYNGKTGYVSEQYIKLA”, the “soluble fraction (log2)” value falls from 0.114 to -3.12.

Going from “HMQTTDTGAIETIVDELMAANPDKVEAYRGGKTGLQGFFMGQVMKQLGGQGNPKVISAIVTEKLE” to “HMQTTPAGHELLIRYFANGNIRERGMMKDGKRNGIWIFYDESGMEIRKTKYKMGKIISDYDLN”, the “soluble fraction (log2)” value falls from at least 0.62 to -1.07.

Going from “HMQTTQQLIRNLRLKQAATLLADKRHSITEVATLTGFTHPTYFATAFREMFGVSPSEYMEQHI” to “HMQTYNQLKRGMTEWIQAGQKQKAYELFAGVAGQLSLSSAAGKKQYNELVTILNRAGFGIPLE”, the “soluble fraction (log2)” value rises from -0.86 to -0.428.

First: HMQVEMVLSQEAHEWLLQRGFIPEYGAREMDRVIAAHLKPLLMREILFGTLKAGGKVRVQVENGALKLQP
Second: HMQVLSESDVEDIKAISGGDKAYDNLMEWAGSKLSKQDAKDYDDVLATGNKTAITFAVKALMAQYENAN
The “soluble fraction (log2)” value of the first is lower: -1.44 for the first, -0.299 for the second.

Going from “HMQVPFGFQRNPSTGTLEEKAEEQLIINQVLSLKNSGIGVSEISKRLGELSVSRIYRIINTAKKNAS” to “HMQVSDANQLTDVVKSIIKQYPVEVEKYKSGKKALFGFFMGKVMENLKGKSNPKILKNVLTEILD”, the “soluble fraction (log2)” value rises from -0.366 to 0.108.

Going from “HMQVSDTNTLEQFAKEVIEANPKAVEDYHQNPLAIGFLVGQLMKVSKGSANPQTGKEILEKLL” to “HMQVSDVTTIRALVEEVLSSSPQQLAQYRAGKLSLKGYFVGQVMKKGKGQLNAAAVNNLLDEIL”, the “soluble fraction (log2)” value falls from 0.178 to -0.185.

Compared with “HMQVSEQVQRLLDALENDTLTTKELMDRLGLKHRPTFRKNYLLPSMKLGLVEMTIPDKPNSSRQKYRRRQ”, “HMQVTEVDYGTFMKMVEEKNVGEVEVGNSMIVFTDKDGKAIYKTGAMNDPNLTERLYNAGASFTKE” is higher in “soluble fraction (log2)” value: -0.65 for the first, 0.0396 for the second.

“HMQVTGLTAENAHRVTMIREKGTDHPPVPFHFRKEHHGTGNYVHLYGNPEDRNELHSRDFKDWEAVAFK” and “HMQVVDWSQVDKEDYLLATKRRAVSTGELKFLLLNNLTYDLTQTRFFKGMDASYYYEGYNLYQTGE” are within 0.2 log units of each other in “soluble fraction (log2)” value: 0.25 for the first, 0.122 for the second.

Going from “HMQWGKVRRLPSGRYQASYVHKGTRYTAPETYTVQGRAHGWIESERRLIVTDTWTPPDTRPS” to “HMQWLDSIRSRLRVGQTISYFEPRENASSSGLIIELRRKRVLVLEIATQKRWLIEYAAINVDG”, the “soluble fraction (log2)” value rises from -1.78 to -0.373.

Compared with “HMQWQPSEEAMQRLEQHGIPRAFSFSQLDAFVLQGQEQGSNRNDWNTRFFRFIKNQWVYAQN”, “HMQYDSYTVEEPAKLLDWLLAHLRQSRTKIKATLQGHGIKVNGKTVTQFDYPLEPGMKIRVSLTK” is higher in “soluble fraction (log2)” value: -1.62 for the first, 0.159 for the second.

Compared with “HMQYKTRVINLSILEVGMVLGRDLINKDGKIIVKKDVAISDFLKDHLIGLSKIKEIEPQIYIKV”, “HMQYSIQVNKLLKAMREDVWYTANEILDLLKLKSKETLRKNYLDPAINNKLIILELPDKPTSRNQRYKI” is lower in “soluble fraction (log2)” value: -1.08 for the first, -1.66 for the second.

For “HMQYTQKTMYINDSYVNLRKSASTSSDIIMVVELNTKLTVIGEDGDWYKVKTSSGNAYVLKTLLSNEKKET”, the “soluble fraction (log2)” value was -0.108.
